T1: FcγRIIb extracellular domain with C-terminal His tag (human, UniProt P31994 43-217)
T1 construct: extracellular domain; also called 2b; FcgRIIb
T1 sequence (looked up): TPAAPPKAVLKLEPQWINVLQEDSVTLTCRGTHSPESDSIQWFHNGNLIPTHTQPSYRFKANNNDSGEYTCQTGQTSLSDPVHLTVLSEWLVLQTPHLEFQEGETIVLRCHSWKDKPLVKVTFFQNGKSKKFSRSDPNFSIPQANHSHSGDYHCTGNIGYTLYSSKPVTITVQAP

T2: FcγRIIb (human, UniProt P31994 43-217)
T2 construct: extracellular domain; also called FcgRIIb; 2b
T2 sequence (looked up): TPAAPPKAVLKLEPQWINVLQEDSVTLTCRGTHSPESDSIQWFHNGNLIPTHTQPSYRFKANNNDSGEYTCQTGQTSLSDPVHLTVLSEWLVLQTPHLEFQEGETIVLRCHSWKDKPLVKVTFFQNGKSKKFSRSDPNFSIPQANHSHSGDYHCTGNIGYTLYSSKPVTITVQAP


How the values were obtained:
[1] = target: T3, FcγRIIIa extracellular domain with C-terminal His tag (human, UniProt P08637 17-208); assay: SPR, relative to GpH7-A5/GpH7-B3/GpL16-k0
T3 construct: extracellular domain; also called 3a; FcgRIIIa
Experimental: (§1) The heterodimerized antibodies He Abs in which one of the H chains was introduced with an alteration were assayed for their binding activities to each activating FcγR and inhibitory FcγR according to the method described in Example 4. […] The activating FcγRs in FIGS. 26, 27, 28, and 29 are FcγRIa, FcγRIIa (R), FcγRIIa (H), and FcγRIIIa, respectively.
(§2) Analysis of interaction between objective antibody and the FcγR was carried out using Biacore T100 (GE Healthcare). HBS-EP+ (GE Healthcare) was used as the running buffer, and the measurement temperature was set to 25° C. Chips produced by immobilizing the antigen peptide by the amine coupling method to a Series S Sencor Chip CM5 (GE Healthcare), or alternatively, chips produced by allowing preliminarily biotinylated antigen peptides to interact with and immobilize onto a Series S Sensor Chip SA (certified) (GE Healthcare) were used. Antibodies of interest were captured onto an antigen peptide-immobilized chip, and allowed to interact to each FcγR diluted with running buffer. To regenerate and repeatedly use the chip, the antibodies captured on the chip were washed off by reacting 10 mM glycine-HCl, pH 1.5.

[2] = target: T1, FcγRIIb extracellular domain with …; assay: SPR, relative to GpH7-A5/GpH7-B3/GpL16-k0
Experimental: as §1, §2

FcγRIIb = target: T2, FcγRIIb; assay: SPR (Biacore), relative to GpH7-A5/GpH7-B3/GpL16-k0 = 100
Experimental: as §1, §2

FcγRIa = target: T4, FcγRIa (human, UniProt P12314 16-292); assay: as above
T4 construct: extracellular domain; also called FcgRI; FcgRIa
Experimental: as §1, §2

T4 sequence (P12314 16-292): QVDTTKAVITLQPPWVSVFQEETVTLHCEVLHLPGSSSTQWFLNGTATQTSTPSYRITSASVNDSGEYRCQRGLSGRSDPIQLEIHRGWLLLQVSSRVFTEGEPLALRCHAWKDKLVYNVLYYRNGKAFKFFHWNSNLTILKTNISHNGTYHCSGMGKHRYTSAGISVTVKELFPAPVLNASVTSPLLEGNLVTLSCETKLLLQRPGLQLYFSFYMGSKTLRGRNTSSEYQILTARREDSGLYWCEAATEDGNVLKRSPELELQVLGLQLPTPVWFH
T3 sequence (P08637 17-208): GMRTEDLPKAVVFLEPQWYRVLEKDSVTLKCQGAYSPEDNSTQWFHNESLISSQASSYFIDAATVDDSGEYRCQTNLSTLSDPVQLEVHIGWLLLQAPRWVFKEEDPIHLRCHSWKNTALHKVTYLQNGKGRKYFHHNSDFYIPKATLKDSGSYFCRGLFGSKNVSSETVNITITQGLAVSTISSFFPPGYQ

Row | Binder | He/Con_3a [1] | He/Con_2b [2] | He/Con_2b (IIb binding) (FcγRIIb) | He/Con_1a (Ia binding) (FcγRIa)
1 | GpH7-A5/GpH7-B3 variant I336_13S/GpL16-k0 (antibody, human IgG1, kappa, heterodimerized IgG1, one H chain mutated; also called He Ab) heavy 1: not shown heavy 2: not shown light: DIVMTQSPLSLPVTPGEPASISCQASESLVHSNRNTYLHWYLQKPGQSPQLLIYKVSNRFSGVPDRFSGSGSGTDFTLKISRVEAEDVGVYYCSQNTHVPPTFGQGTKVEIERTVAAPSVFIFPPSDEQLKSGTASVVCLLNNFYPREAKVQWKVDNALQSGNSQESVTEQDSKDSTYSLSSTLTLSKADYEKHKVYACEVTHQGLSSPVTKSFNRGEC |  |  | 83.7 relative (control = 100) | 102 relative (control = 100)
2 | GpH7-A5/GpH7-B3 variant S324_01G/GpL16-k0 (antibody, human IgG1, kappa, He Ab: alteration in one H chain only; also called He Ab) heavy 1: not shown heavy 2: not shown light: DIVMTQSPLSLPVTPGEPASISCQASESLVHSNRNTYLHWYLQKPGQSPQLLIYKVSNRFSGVPDRFSGSGSGTDFTLKISRVEAEDVGVYYCSQNTHVPPTFGQGTKVEIERTVAAPSVFIFPPSDEQLKSGTASVVCLLNNFYPREAKVQWKVDNALQSGNSQESVTEQDSKDSTYSLSSTLTLSKADYEKHKVYACEVTHQGLSSPVTKSFNRGEC | 105 control=100 | 81.1 control=100 |  | 
3 | GpH7-A5/GpH7-B3 variant S298_03V/GpL16-k0 (antibody, human IgG1, kappa, He Ab: alteration in one H chain only; also called He Ab) heavy 1: not shown heavy 2: not shown light: DIVMTQSPLSLPVTPGEPASISCQASESLVHSNRNTYLHWYLQKPGQSPQLLIYKVSNRFSGVPDRFSGSGSGTDFTLKISRVEAEDVGVYYCSQNTHVPPTFGQGTKVEIERTVAAPSVFIFPPSDEQLKSGTASVVCLLNNFYPREAKVQWKVDNALQSGNSQESVTEQDSKDSTYSLSSTLTLSKADYEKHKVYACEVTHQGLSSPVTKSFNRGEC | 109 control=100 | 64.5 control=100 |  | 
4 | GpH7-A5/GpH7-B3 variant I336_10E/GpL16-k0 (antibody, human IgG1, kappa, heterodimerized IgG1, one H chain mutated; also called He Ab) heavy 1: not shown heavy 2: not shown light: DIVMTQSPLSLPVTPGEPASISCQASESLVHSNRNTYLHWYLQKPGQSPQLLIYKVSNRFSGVPDRFSGSGSGTDFTLKISRVEAEDVGVYYCSQNTHVPPTFGQGTKVEIERTVAAPSVFIFPPSDEQLKSGTASVVCLLNNFYPREAKVQWKVDNALQSGNSQESVTEQDSKDSTYSLSSTLTLSKADYEKHKVYACEVTHQGLSSPVTKSFNRGEC |  |  | 89.8 relative (control = 100) | 108 relative (control = 100)
5 | GpH7-A5/GpH7-B3 variant I336_09D/GpL16-k0 (antibody, human IgG1, kappa, heterodimerized IgG1, one H chain mutated; also called He Ab) heavy 1: not shown heavy 2: not shown light: DIVMTQSPLSLPVTPGEPASISCQASESLVHSNRNTYLHWYLQKPGQSPQLLIYKVSNRFSGVPDRFSGSGSGTDFTLKISRVEAEDVGVYYCSQNTHVPPTFGQGTKVEIERTVAAPSVFIFPPSDEQLKSGTASVVCLLNNFYPREAKVQWKVDNALQSGNSQESVTEQDSKDSTYSLSSTLTLSKADYEKHKVYACEVTHQGLSSPVTKSFNRGEC |  |  | 92.1 relative (control = 100) | 104 relative (control = 100)

Continued, values first:

Row | He/Con_3a [1] | He/Con_2b [2] | He/Con_2b (IIb binding) (FcγRIIb) | He/Con_1a (Ia binding) (FcγRIa) | Binder
6 | 105 control=100 | 73.6 control=100 |  |  | GpH7-A5/GpH7-B3 variant Y300_08L/GpL16-k0 (antibody, human IgG1, kappa, He Ab: alteration in one H chain only; also called He Ab) heavy 1: not shown heavy 2: not shown light: DIVMTQSPLSLPVTPGEPASISCQASESLVHSNRNTYLHWYLQKPGQSPQLLIYKVSNRFSGVPDRFSGSGSGTDFTLKISRVEAEDVGVYYCSQNTHVPPTFGQGTKVEIERTVAAPSVFIFPPSDEQLKSGTASVVCLLNNFYPREAKVQWKVDNALQSGNSQESVTEQDSKDSTYSLSSTLTLSKADYEKHKVYACEVTHQGLSSPVTKSFNRGEC
7 | 104 control=100 | 78.3 control=100 |  |  | GpH7-A5/GpH7-B3 variant S324_02A/GpL16-k0 (antibody, human IgG1, kappa, He Ab: alteration in one H chain only; also called He Ab) heavy 1: not shown heavy 2: not shown light: DIVMTQSPLSLPVTPGEPASISCQASESLVHSNRNTYLHWYLQKPGQSPQLLIYKVSNRFSGVPDRFSGSGSGTDFTLKISRVEAEDVGVYYCSQNTHVPPTFGQGTKVEIERTVAAPSVFIFPPSDEQLKSGTASVVCLLNNFYPREAKVQWKVDNALQSGNSQESVTEQDSKDSTYSLSSTLTLSKADYEKHKVYACEVTHQGLSSPVTKSFNRGEC
8 | 102 control=100 | 87.5 control=100 |  |  | GpH7-A5/GpH7-B3 variant S324_20W/GpL16-k0 (antibody, human IgG1, kappa, He Ab: alteration in one H chain only; also called He Ab) heavy 1: not shown heavy 2: not shown light: DIVMTQSPLSLPVTPGEPASISCQASESLVHSNRNTYLHWYLQKPGQSPQLLIYKVSNRFSGVPDRFSGSGSGTDFTLKISRVEAEDVGVYYCSQNTHVPPTFGQGTKVEIERTVAAPSVFIFPPSDEQLKSGTASVVCLLNNFYPREAKVQWKVDNALQSGNSQESVTEQDSKDSTYSLSSTLTLSKADYEKHKVYACEVTHQGLSSPVTKSFNRGEC
9 | 101 control=100 | 85.8 control=100 |  |  | GpH7-A5/GpH7-B3 variant S324_09D/GpL16-k0 (antibody, human IgG1, kappa, He Ab: alteration in one H chain only; also called He Ab) heavy 1: not shown heavy 2: not shown light: DIVMTQSPLSLPVTPGEPASISCQASESLVHSNRNTYLHWYLQKPGQSPQLLIYKVSNRFSGVPDRFSGSGSGTDFTLKISRVEAEDVGVYYCSQNTHVPPTFGQGTKVEIERTVAAPSVFIFPPSDEQLKSGTASVVCLLNNFYPREAKVQWKVDNALQSGNSQESVTEQDSKDSTYSLSSTLTLSKADYEKHKVYACEVTHQGLSSPVTKSFNRGEC

From patent US20180155451A1 (published 2018)
